Literature values in publication PMC4773801.

Target: bee venom group III sPLA2 (Apis mellifera) (UniProt P00630)
UniProt P00630, sequence (P00630 34-167): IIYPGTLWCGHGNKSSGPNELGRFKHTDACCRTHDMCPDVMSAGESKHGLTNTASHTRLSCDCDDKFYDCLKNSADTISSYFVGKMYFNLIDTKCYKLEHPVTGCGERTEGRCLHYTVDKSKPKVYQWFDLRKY

**Q.** For “mannose receptor CD206 (from UniProt P22897)”, which Kd is on record?
**A.** 4.79 µM
